Assay results reported in paper PMC9049628.

Substrate: NCCCC[C@H](N)C(=O)O
Experiment: purified protein
Conditions: 5 mM acetyl-CoA, 50 mM Tris-HCl pH 10.0, 40 °C, 0.65 mM DTNB

B1: ShKAT (Salinicoccus halodurans) (protein)
chain: MWQTKKFNELSLSEIEQIFRLRQSIFIIEQQSYFADIDGKDTEAIHIFNKENNIIWAYCRILIYDEKVILGRVTVHSDKRGNGNGRELLNTALKYLKENYPDKFVQIVAMSYLKDFYKSYGFKSISEVYIMDDHPHEDMILKH
**Q.** How did the Km turn out when B1 was run?
**A.** 1890 µM
